# Target: phospho-NEDD8 (human (cDNA from HEK393T cells), UniProt Q15843 1-76, phosphoserine at 65)
# Test: crystal structure
row,binding result,Binder
1,binds,human Parkin R0RBR (141-465) (domain or fragment) SIYNSFYVYCKGPCQRVQPGKLRVQCSTCRQATLTLTQGPSCWDDVLIPNRMSGECQSPHCPGTSAEFFFKCGAHPTSDKETSVALHLIATNSRNITCITCTDVRSPVLVFQCNSRHVICLDCFHLYCVTRLNDRQFVHDPQLGYSLPCVAGCPNSLIKELHHFRILGEEQYNRYQQYGAEECVLQMGGVLCPRPGCGAGLLPEPDQRKVTCEGGNGLGCGFAFCRECKEAYHEGECSAVFEASGTTTQAYRVDERAAEQARWEAASKETIKKTTKPCPRCHVPVEKNGGCMHMKCPQPQCRLEWCWNCGCEWNRVCMGDHWFDV
2,binds,human Parkin R0RBR K211N (141-465) (domain or fragment) SIYNSFYVYCKGPCQRVQPGKLRVQCSTCRQATLTLTQGPSCWDDVLIPNRMSGECQSPHCPGTSAEFFFNCGAHPTSDKETSVALHLIATNSRNITCITCTDVRSPVLVFQCNSRHVICLDCFHLYCVTRLNDRQFVHDPQLGYSLPCVAGCPNSLIKELHHFRILGEEQYNRYQQYGAEECVLQMGGVLCPRPGCGAGLLPEPDQRKVTCEGGNGLGCGFAFCRECKEAYHEGECSAVFEASGTTTQAYRVDERAAEQARWEAASKETIKKTTKPCPRCHVPVEKNGGCMHMKCPQPQCRLEWCWNCGCEWNRVCMGDHWFDV

# From publication doi:10.1101/2023.11.21.568018 (bioRxiv, 2023)
